The supplement of paper PMC9112550, “Optimization of the antimicrobial peptide Bac7 by deep mutational scanning” (BMC Biology, 2022)
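Also: peptides expressed intracellularly from a pBAD plasmid library in pooled LB shake-flask culture, induced with 0.3% L-arabinose, DNA abundance read by NGS, three biological replicates, DESeq2 with apeglm shrinkage.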

Each sequence was assayed on Escherichia coli TOP10 (assay: shrunken log2 fold change of peptide-encoding DNA abundance (4.5 h post-induction vs induction); higher = less antimicrobial activity (less host growth inhibition)). Details: time post-induction: 4.5 h; library: site-saturation at positions 5, 18, 19, 20.
In the case of RRIRFRPPRLPRPRPRPTKGPRP, the “shrunken log2 fold change” value is reported as -0.0144. With RRIRVRPPRLPRPRPRPRLTPRP the “shrunken log2 fold change” value was 0.169. In the case of RRIRVRPPRLPRPRPRPLMGPRP, the “shrunken log2 fold change” value is reported as 0.0412. RRIRDRPPRLPRPRPRPAIYPRP was tested, and the “shrunken log2 fold change” value was 0.00069. With RRIRERPPRLPRPRPRPQAEPRP the “shrunken log2 fold change” value was -0.0297. With RRIRMRPPRLPRPRPRPQSIPRP the “shrunken log2 fold change” value was -0.0553. RRIRARPPRLPRPRPRPRHNPRP was tested, and the “shrunken log2 fold change” value was -0.0548. With RRIRARPPRLPRPRPRPKKDPRP the “shrunken log2 fold change” value was 0.468. For RRIRSRPPRLPRPRPRPLMVPRP, the “shrunken log2 fold change” value was 0.134. In the case of RRIRSRPPRLPRPRPRPKALPRP, the “shrunken log2 fold change” value is reported as 0.175. For RRIRVRPPRLPRPRPRPTMSPRP, the “shrunken log2 fold change” value was -0.194. In the case of RRIRVRPPRLPRPRPRPCSVPRP, the “shrunken log2 fold change” value is reported as -0.0384. RRIRGRPPRLPRPRPRPYNFPRP was tested, and the “shrunken log2 fold change” value was -0.35. With RRIRLRPPRLPRPRPRPFPFPRP the “shrunken log2 fold change” value was -0.254. RRIRARPPRLPRPRPRPGCRPRP was tested, and the “shrunken log2 fold change” value was 0.609. RRIRIRPPRLPRPRPRPWLHPRP was tested, and the “shrunken log2 fold change” value was -0.496. In the case of RRIRARPPRLPRPRPRPTWGPRP, the “shrunken log2 fold change” value is reported as 0.625. In the case of RRIRYRPPRLPRPRPRPLHWPRP, the “shrunken log2 fold change” value is reported as -0.211. In the case of RRIRSRPPRLPRPRPRPQMCPRP, the “shrunken log2 fold change” value is reported as -0.724. RRIRDRPPRLPRPRPRPQEMPRP was tested, and the “shrunken log2 fold change” value was -0.01. For RRIRLRPPRLPRPRPRPEVHPRP, the “shrunken log2 fold change” value was 0.101. RRIRYRPPRLPRPRPRPVDEPRP was tested, and the “shrunken log2 fold change” value was -0.554. With RRIRLRPPRLPRPRPRPAGAPRP the “shrunken log2 fold change” value was 0.632. In the case of RRIRPRPPRLPRPRPRPFCMPRP, the “shrunken log2 fold change” value is reported as -0.047. With RRIRTRPPRLPRPRPRPVKNPRP the “shrunken log2 fold change” value was -0.284. With RRIRARPPRLPRPRPRPGQEPRP the “shrunken log2 fold change” value was 0.0636. In the case of RRIRSRPPRLPRPRPRPNMTPRP, the “shrunken log2 fold change” value is reported as -0.247. With RRIRWRPPRLPRPRPRPERYPRP the “shrunken log2 fold change” value was 0.142. With RRIRCRPPRLPRPRPRPCIIPRP the “shrunken log2 fold change” value was -0.538. In the case of RRIRNRPPRLPRPRPRPDRIPRP, the “shrunken log2 fold change” value is reported as -0.0387. For RRIRLRPPRLPRPRPRPARMPRP, the “shrunken log2 fold change” value was 0.386. For RRIRPRPPRLPRPRPRPRHAPRP, the “shrunken log2 fold change” value was 0.502. For RRIRKRPPRLPRPRPRPYDAPRP, the “shrunken log2 fold change” value was -0.252. In the case of RRIRTRPPRLPRPRPRPWYDPRP, the “shrunken log2 fold change” value is reported as 0.0754. With RRIRERPPRLPRPRPRPGFIPRP the “shrunken log2 fold change” value was -0.256. With RRIRIRPPRLPRPRPRPVGLPRP the “shrunken log2 fold change” value was -0.0289. For RRIRRRPPRLPRPRPRPGSEPRP, the “shrunken log2 fold change” value was 0.00207. RRIRPRPPRLPRPRPRPFTMPRP was tested, and the “shrunken log2 fold change” value was 1.43. RRIRMRPPRLPRPRPRPTCMPRP was tested, and the “shrunken log2 fold change” value was 0.262. RRIRPRPPRLPRPRPRPGQRPRP was tested, and the “shrunken log2 fold change” value was 0.44. RRIRDRPPRLPRPRPRPSCQPRP was tested, and the “shrunken log2 fold change” value was 0.17. For RRIRVRPPRLPRPRPRPDHFPRP, the “shrunken log2 fold change” value was -0.0417. With RRIRSRPPRLPRPRPRPKLEPRP the “shrunken log2 fold change” value was 0.165. For RRIRDRPPRLPRPRPRPFEMPRP, the “shrunken log2 fold change” value was 0.182. RRIRPRPPRLPRPRPRPNYSPRP was tested, and the “shrunken log2 fold change” value was -0.39. For RRIRNRPPRLPRPRPRPIYDPRP, the “shrunken log2 fold change” value was -0.4. In the case of RRIRFRPPRLPRPRPRPDFQPRP, the “shrunken log2 fold change” value is reported as -0.546. In the case of RRIRMRPPRLPRPRPRPQILPRP, the “shrunken log2 fold change” value is reported as -0.0502. With RRIRSRPPRLPRPRPRPHNCPRP the “shrunken log2 fold change” value was -0.159. RRIRNRPPRLPRPRPRPAIFPRP was tested, and the “shrunken log2 fold change” value was -0.424. In the case of RRIRDRPPRLPRPRPRPYVHPRP, the “shrunken log2 fold change” value is reported as -0.407. For RRIRCRPPRLPRPRPRPDGVPRP, the “shrunken log2 fold change” value was 0.125. In the case of RRIRLRPPRLPRPRPRPNCPPRP, the “shrunken log2 fold change” value is reported as -0.213. With RRIRWRPPRLPRPRPRPMYWPRP the “shrunken log2 fold change” value was 0.0085. In the case of RRIRNRPPRLPRPRPRPWILPRP, the “shrunken log2 fold change” value is reported as -0.146. For RRIRFRPPRLPRPRPRPPGWPRP, the “shrunken log2 fold change” value was 0.448. RRIRLRPPRLPRPRPRPEWFPRP was tested, and the “shrunken log2 fold change” value was 0.161. With RRIRGRPPRLPRPRPRPHADPRP the “shrunken log2 fold change” value was 1.68. With RRIRSRPPRLPRPRPRPCQNPRP the “shrunken log2 fold change” value was 0.0167. RRIRMRPPRLPRPRPRPIMFPRP was tested, and the “shrunken log2 fold change” value was -0.103. RRIRYRPPRLPRPRPRPHAQPRP was tested, and the “shrunken log2 fold change” value was -0.0405. In the case of RRIRQRPPRLPRPRPRPVCMPRP, the “shrunken log2 fold change” value is reported as -0.0787. For RRIRPRPPRLPRPRPRPSSKPRP, the “shrunken log2 fold change” value was -0.217. In the case of RRIRWRPPRLPRPRPRPSGRPRP, the “shrunken log2 fold change” value is reported as 0.201. For RRIRERPPRLPRPRPRPNAYPRP, the “shrunken log2 fold change” value was -0.0628. For RRIRRRPPRLPRPRPRPNNLPRP, the “shrunken log2 fold change” value was -0.293. For RRIRRRPPRLPRPRPRPHIHPRP, the “shrunken log2 fold change” value was -0.674. In the case of RRIRTRPPRLPRPRPRPRSKPRP, the “shrunken log2 fold change” value is reported as -0.101. For RRIRERPPRLPRPRPRPMYMPRP, the “shrunken log2 fold change” value was -0.0017. With RRIRTRPPRLPRPRPRPGAQPRP the “shrunken log2 fold change” value was 0.283. In the case of RRIRNRPPRLPRPRPRPKHVPRP, the “shrunken log2 fold change” value is reported as -0.0669. For RRIRTRPPRLPRPRPRPVNYPRP, the “shrunken log2 fold change” value was 0.0177. For RRIRKRPPRLPRPRPRPYYNPRP, the “shrunken log2 fold change” value was -0.197. With RRIRYRPPRLPRPRPRPHVWPRP the “shrunken log2 fold change” value was 0.0773. With RRIRTRPPRLPRPRPRPSMIPRP the “shrunken log2 fold change” value was -0.527.
